Data taken from patent publication US20250026787A1 (GLO PHARMA, published 2025).
Square brackets hold non-standard residues; d marks the D form. Ends that are not written are not given here.

Experiments:
[1] = target: T1, Human recombinant melanocortin MC1 receptor (human, UniProt Q01726 1-317); experiment: radioligand competition, displacement of [125I]NDP-alpha-MSH from human MC1R (CHO-K1), Example 7
T1 construct: whole, on cells; Eurofins Discovery assay Item 251100; a 3 ug aliquot of receptors from CHO-K1 cells was incubated, filtered and washed (probably a membrane preparation); also called Melanocortin 1 Receptor; MCIR
Protocol: (§1) The binding of Group A MCIR peptide antagonists of the disclosure was evaluated in a competition assay (MC1 Human Melanocortin GPCR Binding (Agonist Radioligand) Assay, Item 251100, Eurofins Discovery). Peptides were synthesized by AnaSpec (Fremont, CA). Human recombinant melanocortin MCI receptors were expressed in CHO-K1 cells in modified HEPES-KOH buffer pH 7.0. A 3 μgs aliquot was incubated with 0.04 nM [¹²⁵I]NDP-α-MSH for 120 minutes at 37° C. Non-specific binding was estimated in the presence of 1 μM NDP-α-MSH. Receptors were filtered and washed, and the filters counted to determine [¹²⁵I]NDP-α-MSH specifically bound. Peptide antagonists of the disclosure having amino acid sequences as set forth in SEQ ID NOS: 11, 16, 25, 27, 32, 35, and 40 were screened at five concentrations. Inhibition curves were obtained by determining the reduction of bound α-MSH in the presence of an amount of, and/or by increasing amounts of, each peptide antagonist.

[2] = target: T1, Human recombinant melanocortin MC1 …; experiment: radioligand competition, displacement of [125I]NDP-alpha-MSH from human MC1R (CHO-K1), Example 1
Protocol: as §1, with “determine [¹²⁵I] NDP-α-MSH” for “determine [¹²⁵I]NDP-α-MSH”, “40 (each having a C-terminal —NH2)” for “40”, “five concentrations, as well as a positive control, SEQ ID NO: 1 (Melanostatine-5).” for “five concentrations.”, “antagonist. Non-specific binding of peptide was estimated separately in the presence of a vast excess (1 mM) of unlabeled α-MSH, which occupies all the available receptor binding sites.” for “antagonist.”
Based on the competitive binding curve, the IC₅₀ values were determined (Eurofins or AAT Bioquest IC₅₀ calculator). […]

T1 sequence (Q01726 whole entry): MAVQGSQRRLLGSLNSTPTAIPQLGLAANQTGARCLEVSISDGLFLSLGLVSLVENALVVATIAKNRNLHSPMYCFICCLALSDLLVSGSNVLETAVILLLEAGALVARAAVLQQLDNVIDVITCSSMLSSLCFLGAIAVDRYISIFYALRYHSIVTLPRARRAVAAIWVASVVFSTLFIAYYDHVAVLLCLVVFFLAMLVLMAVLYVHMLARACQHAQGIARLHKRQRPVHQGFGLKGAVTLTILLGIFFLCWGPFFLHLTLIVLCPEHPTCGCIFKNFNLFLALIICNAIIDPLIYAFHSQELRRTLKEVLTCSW

Binder | IC50 [1] | IC50 [2]
MVFR[dW]FKPV-NH2 (N-terminus assumed; SMILES CSCC[C@H](N)C(=O)N[C@H](C(=O)N[C@@H](Cc1ccccc1)C(=O)N[C@@H](CCCNC(=N)N)C(=O)N[C@H](Cc1c[nH]c2ccccc12)C(=O)N[C@@H](Cc1ccccc1)C(=O)N[C@@H](CCCCN)C(=O)N1CCC[C@H]1C(=O)N[C@H](C(N)=O)C(C)C)C(C)C, Printed as Met-Val-Phe-Arg-dTrp-Phe-Lys-Pro-Val-NH2) [SEQ ID NO: 27] | > 500 nM | –
EV[dF]R[dW]FKPV-NH2 (N-terminus assumed; SMILES CC(C)[C@H](NC(=O)[C@@H]1CCCN1C(=O)[C@H](CCCCN)NC(=O)[C@H](Cc1ccccc1)NC(=O)[C@@H](Cc1c[nH]c2ccccc12)NC(=O)[C@H](CCCNC(=N)N)NC(=O)[C@@H](Cc1ccccc1)NC(=O)[C@@H](NC(=O)[C@@H](N)CCC(=O)O)C(C)C)C(N)=O, Printed as Glu-Val-dPhe-Arg-dTrp-Phe-Lys-Pro-Val-NH2) [SEQ ID NO: 25] | > 500 nM | –
AV[dF]R[dW]FKPV-NH2 (N-terminus assumed; SMILES CC(C)[C@H](NC(=O)[C@@H]1CCCN1C(=O)[C@H](CCCCN)NC(=O)[C@H](Cc1ccccc1)NC(=O)[C@@H](Cc1c[nH]c2ccccc12)NC(=O)[C@H](CCCNC(=N)N)NC(=O)[C@@H](Cc1ccccc1)NC(=O)[C@@H](NC(=O)[C@H](C)N)C(C)C)C(N)=O, Printed as Ala-Val-dPhe-Arg-dTrp-Phe-Lys-Pro-Val-NH2) [SEQ ID NO: 11] | 200 to 500 nM | –
FV[dF]R[dW]FKPV-NH2 (N-terminus assumed; SMILES CC(C)[C@H](NC(=O)[C@@H]1CCCN1C(=O)[C@H](CCCCN)NC(=O)[C@H](Cc1ccccc1)NC(=O)[C@@H](Cc1c[nH]c2ccccc12)NC(=O)[C@H](CCCNC(=N)N)NC(=O)[C@@H](Cc1ccccc1)NC(=O)[C@@H](NC(=O)[C@@H](N)Cc1ccccc1)C(C)C)C(N)=O, Printed as Phe-Val-dPhe-Arg-dTrp-Phe-Lys-Pro-Val-NH2) [SEQ ID NO: 16] | < 200 nM | –

Further lines, results first:

IC50 [1] | IC50 [2] | Binder
< 200 nM | 120 nM | MP[dF]R[dW]FKPV (Printed as Met-Pro-D-Phe-Arg-D-Trp-Phe-Lys-Pro-Val; no terminal modification is printed for the control; also called control; positive control) [Melanostatine-5 / Nonapeptide-1 (SEQ ID NO: 1)]
< 200 nM | – | IFR[dW]FKPV-NH2 (N-terminus assumed; SMILES CC[C@H](C)[C@H](N)C(=O)N[C@@H](Cc1ccccc1)C(=O)N[C@@H](CCCNC(=N)N)C(=O)N[C@H](Cc1c[nH]c2ccccc12)C(=O)N[C@@H](Cc1ccccc1)C(=O)N[C@@H](CCCCN)C(=O)N1CCC[C@H]1C(=O)N[C@H](C(N)=O)C(C)C, Printed as Ile-Phe-Arg-dTrp-Phe-Lys-Pro-Val-NH2 (8 residues)) [SEQ ID NO: 32]
